Test results from patent US20220363718A1 (Bicycle, published 2022).
*1 amine or outer side, *2 acyl side, *3 side chain or, on linkers, in order; H or OH if unused. Bridges are numbered along the chain shown (N, C = ends). Where no end group is shown, it is not given here. [ ]: non-standard residue; d: D form. Phe(4-OMe) = 4-methoxy-phenylalanine (4-MeOPhe) = O-methyl-tyrosine, COc1ccc(C[C@H](N[*:1])C(=O)[*:2])cc1; TATA = O=C(CC[*:1])N1CN(C(=O)CC[*:2])CN(C(=O)CC[*:3])C1; Abu(4,4,4-F3) = N[C@@H](CC(F)(F)F)C(=O)O; Orn = NCCC[C@H](N)C(=O)O

B1: Example 159 (peptide)
peptide: CHWLENCWXGFC
modifications: not fully specified; N-term acetyl; CHWLENCW[Dap]GFC as printed; 3 Cys on TATA
B2: Example 125 (peptide)
peptide: ACNWLEDCWHGFCHEE
modifications: linker 2-8-13 via TATA; not fully specified (C-terminus)
B3: Example 100 (peptide)
peptide: Ac-CDWLEDCWRGFCTTS
modifications: linker 1-7-12 via TATA; not fully specified (C-terminus)
B4: Example 102 (peptide)
peptide: CQWLEDCWXGFC
modifications: not fully specified; CQWLEDCW[Cit]GFC as printed; 3 Cys on TATA
B5: Example 141 (peptide)
peptide: ACDWLDDCWKGFCA
modifications: linker 2-8-13 via TATA
B6: Example 165 (peptide)
peptide: AHPCADLDPWTCPNWWLCA
modifications: linker 4-12-18 via TATA; not fully specified (C-terminus)
B7: Example 138 (peptide)
peptide: ACFWLEDCWRGYCETA
modifications: linker 2-8-13 via TATA
B8: Example 180 (peptide)
peptide: C[Orn]ELDPWTCETWWLC
modifications: linker 1-9-15 via TATA
B9: Example 170 (peptide)
peptide: ACRDLDPWTCEEWWLCAHP
modifications: linker 2-10-16 via TATA
B10: Example 135 (peptide)
peptide: CQWLEDCWRGXC
modifications: N-term acetyl; CQWLEDCWRG[2ThienylA]C as printed; 3 Cys on TATA
B11: Example 175 (peptide)
peptide: ACRDLDPWTCSSWWLCSESVHTA
modifications: linker 2-10-16 via TATA
B12: Example 176 (peptide)
peptide: ACRDLDPWTCSSWWLCSSDTTDA
modifications: linker 2-10-16 via TATA
B13: Example 111 (peptide)
peptide: Ac-CQW[Abu(4,4,4-F3)]EDCWRGFC
modifications: linker 1-7-12 via TATA; not fully specified (C-terminus)
B14: Example 142 (peptide)
peptide: Ac-CQWLEDCWRG[Phe(4-OMe)]C
modifications: linker 1-7-12 via TATA
B15: Example 177 (peptide)
peptide: ACRDLDPWTCSSWWLCKPDHVDA
modifications: linker 2-10-16 via TATA
B16: Example 130 (peptide)
peptide: CQWLEDCWRGXC
modifications: N-term acetyl; CQWLEDCWRG[3-CNPhe]C as printed; 3 Cys on TATA
B17: Example 131 (peptide)
peptide: CQWLEDCWXGFC
modifications: N-term acetyl; CQWLEDCW[Can]GFC as printed; 3 Cys on TATA
B18: Example 167 (peptide)
peptide: ACKDLDPWTCSSWWECAPN
modifications: linker 2-10-16 via TATA; not fully specified (C-terminus)
B19: Example 168 (peptide)
peptide: ACRDLDPWTCPTWWTCYDE
modifications: linker 2-10-16 via TATA; not fully specified (C-terminus)
B20: Example 161 (peptide)
peptide: ACESLDPWSCPVWWRCA
modifications: linker 2-10-16 via TATA; not fully specified (C-terminus)
B21: Example 19 (peptide)
peptide: CHWLEDCWRGXC
modifications: N-term acetyl; CHWLEDCWRG[4-FPhe]C as printed; 3 Cys on TATA
B22: Example 126 (peptide)
peptide: CAWLEDCWRGXC
modifications: not fully specified; N-term acetyl; C[dA]WLEDCWRG[4-FPhe]C as printed; 3 Cys on TATA
B23: Example 57 (peptide)
peptide: CQWIEDCWRGXC
modifications: N-term acetyl; CQWIEDCWRG[4-FPhe]C as printed; 3 Cys on TATA
B24: Example 39 (peptide)
peptide: CQWLFDCWRGXC
modifications: N-term acetyl; CQWLFDCWRG[4-FPhe]C as printed; C-terminal -COOH; 3 Cys on TATA
B25: Example 43 (peptide)
peptide: CQWLFDCWRGXC
modifications: not fully specified; N-term acetyl; CQWLFDCWRG[4-FPhe]C as printed; 3 Cys on TATA
B26: Example 23 (peptide)
peptide: CQWLENCWRGXC
modifications: not fully specified; N-term acetyl; CQWLENCWRG[4-FPhe]C as printed; 3 Cys on TATA
B27: Example 117 (peptide)
peptide: RENCRWLDDCWQGFCA
modifications: linker 4-10-15 via TATA
B28: Example 143 (peptide)
peptide: CQWLEDCWRGXC
modifications: N-term acetyl; CQWLEDCWRG[3-BrPhe]C as printed; 3 Cys on TATA
B29: Example 105 (peptide)
peptide: CQWLXDCWRGXC
modifications: not fully specified; N-term acetyl; CQWL[3-ClPhe]DCWRG[4-FPhe]C as printed; 3 Cys on TATA
B30: Example 144 (peptide)
peptide: CWWLXDCWRGXC
modifications: N-term acetyl; CWWL[3-ClPhe]DCWRG[4-FPhe]C as printed; 3 Cys on TATA
B31: Example 179 (peptide)
peptide: CKELDPWTCETWWLC
modifications: linker 1-9-15 via TATA
B32: Example 181 (peptide)
peptide: CQELDPWTCETWWLC
modifications: linker 1-9-15 via TATA
B33: Example 163 (peptide)
peptide: ACTELDPWTCETWWLCA
modifications: linker 2-10-16 via TATA; not fully specified (C-terminus)
B34: Example 149 (peptide)
peptide: Ac-CQWLEDCWAGFC
modifications: linker 1-7-12 via TATA
B35: Example 136 (peptide)
peptide: ACEWLEDCWKGFCHSE
modifications: linker 2-8-13 via TATA
B36: Example 156 (peptide)
peptide: CQWLEDCWXGFC
modifications: not fully specified; CQWLEDCW[Dap]GFC as printed; 3 Cys on TATA
B37: Example 147 (peptide)
peptide: CQWXEDCWRGFC
modifications: N-term acetyl; CQW[M(O)]EDCWRGFC as printed; 3 Cys on TATA
B38: Example 145 (peptide)
peptide: CQXLEDCWXGXC
modifications: N-term acetyl; CQ[ButG]LEDCW[ButG]G[4-FPhe]C as printed; 3 Cys on TATA
B39: Example 104 (peptide)
peptide: CQWLEDCWXGFC
modifications: not fully specified; N-term acetyl; CQWLEDCW[Cit]GFC as printed; 3 Cys on TATA
B40: Example 101 (peptide)
peptide: ACEWLEDCWRGFCA
modifications: linker 2-8-13 via TATA; not fully specified (C-terminus)
B41: Example 169 (peptide)
peptide: ACTDLDPWTCNSWWLCAGD
modifications: linker 2-10-16 via TATA; not fully specified (C-terminus)
B42: Example 118 (peptide)
peptide: CQWLQDCFRGXC
modifications: N-term acetyl; CQWLQDCFRG[4-FPhe]C as printed; 3 Cys on TATA
B43: Example 155 (peptide)
peptide: CQWLEDCWXGFC
modifications: not fully specified; N-term acetyl; CQWLEDCW[Dap]GFC as printed; 3 Cys on TATA
B44: Example 128 (peptide)
peptide: CQWLEDCWRGFCDTSTHS
modifications: linker 1-7-12 via TATA; not fully specified (C-terminus)

The binders below were run against T1, Biotinylated human TSLP (human, biotinylated) (assay: SPR, biotinylated hTSLP on streptavidin chip).
T1 construct: also called hTSLP; thymic stromal lymphopoietin
T1 sequence (chain, as listed by the source limits assumed): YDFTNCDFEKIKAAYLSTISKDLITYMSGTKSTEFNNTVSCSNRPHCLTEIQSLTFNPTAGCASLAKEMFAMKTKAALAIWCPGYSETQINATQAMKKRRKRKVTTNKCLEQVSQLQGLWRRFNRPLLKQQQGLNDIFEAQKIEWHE

Kd [nM]	Binder
5600	B1
300	B2
160	B3
170	B4
600	B5
30	B6
520	B7
300	B8
170	B9
490	B10
240	B11
300	B12
200	B13
710	B14
580	B15
400	B16
400	B17
170	B18
290	B19
890	B20
6.7	B21
310	B22

Kd [nM]	Binder
51	B23
21	B24
30	B25
9.9	B26
250	B27
750	B28
180	B29
860	B30
360	B31
310	B32
230	B33
1100	B34
520	B35
3300	B36
940	B37
900	B38
180	B39
160	B40
290	B41
250	B42
3200	B43
380	B44
